{"source": "patent US20180155451A1", "about": "(published 2018)", "binders": {"B1": {"name": "GpH7-A5/GpH7-B3 variant P329_13S/GpL16-k0 (antibody, human IgG1, kappa)", "heavy 1": "not shown", "heavy 2": "not shown", "light": "DIVMTQSPLSLPVTPGEPASISCQASESLVHSNRNTYLHWYLQKPGQSPQLLIYKVSNRFSGVPDRFSGSGSGTDFTLKISRVEAEDVGVYYCSQNTHVPPTFGQGTKVEIERTVAAPSVFIFPPSDEQLKSGTASVVCLLNNFYPREAKVQWKVDNALQSGNSQESVTEQDSKDSTYSLSSTLTLSKADYEKHKVYACEVTHQGLSSPVTKSFNRGEC", "notes": "He Ab; IgG1; mutation in one H chain only; also called He Ab"}, "B2": {"name": "GpH7-A5/GpH7-B3 variant S324_10E/GpL16-k0 (antibody, human IgG1, kappa)", "heavy 1": "not shown", "heavy 2": "not shown", "light": "B1 light", "notes": "as for B1"}, "B3": {"name": "GpH7-A5/GpH7-B3 variant P329_19Q/GpL16-k0 (antibody, human IgG1, kappa)", "heavy 1": "not shown", "heavy 2": "not shown", "light": "B1 light", "notes": "as for B1"}, "B4": {"name": "GpH7-A5/GpH7-B3 variant P329_14T/GpL16-k0 (antibody, human IgG1, kappa)", "heavy 1": "not shown", "heavy 2": "not shown", "light": "B1 light", "notes": "as for B1"}, "B5": {"name": "GpH7-A5/GpH7-B3 variant P329_15Y/GpL16-k0 (antibody, human IgG1, kappa)", "heavy 1": "not shown", "heavy 2": "not shown", "light": "B1 light", "notes": "as for B1"}, "B6": {"name": "GpH7-A5/GpH7-B3 variant S324_02A/GpL16-k0 (antibody, human IgG1, kappa)", "heavy 1": "not shown", "heavy 2": "not shown", "light": "B1 light", "notes": "as for B1"}, "B7": {"name": "GpH7-A5/GpH7-B3 variant Y300_12R/GpL16-k0 (antibody, human IgG1, kappa)", "heavy 1": "not shown", "heavy 2": "not shown", "light": "B1 light", "notes": "as for B1"}, "B8": {"name": "GpH7-A5/GpH7-B3 variant S324_09D/GpL16-k0 (antibody, human IgG1, kappa)", "heavy 1": "not shown", "heavy 2": "not shown", "light": "B1 light", "notes": "as for B1"}, "B9": {"name": "GpH7-A5/GpH7-B3 variant S324_18N/GpL16-k0 (antibody, human IgG1, kappa)", "heavy 1": "not shown", "heavy 2": "not shown", "light": "B1 light", "notes": "as for B1"}, "B10": {"name": "GpH7-A5/GpH7-B3 variant S324_19Q/GpL16-k0 (antibody, human IgG1, kappa)", "heavy 1": "not shown", "heavy 2": "not shown", "light": "B1 light", "notes": "as for B1"}, "B11": {"name": "GpH7-A5/GpH7-B3 variant P329_18N/GpL16-k0 (antibody, human IgG1, kappa)", "heavy 1": "not shown", "heavy 2": "not shown", "light": "B1 light", "notes": "as for B1"}, "B12": {"name": "GpH7-A5/GpH7-B3 variant Y300_14T/GpL16-k0 (antibody, human IgG1, kappa)", "heavy 1": "not shown", "heavy 2": "not shown", "light": "B1 light", "notes": "as for B1"}, "B13": {"name": "GpH7-A5/GpH7-B3 variant S324_01G/GpL16-k0 (antibody, human IgG1, kappa)", "heavy 1": "not shown", "heavy 2": "not shown", "light": "B1 light", "notes": "as for B1"}, "B14": {"name": "GpH7-A5/GpH7-B3 variant S324_16H/GpL16-k0 (antibody, human IgG1, kappa)", "heavy 1": "not shown", "heavy 2": "not shown", "light": "B1 light", "notes": "as for B1"}, "B15": {"name": "GpH7-A5/GpH7-B3 variant S324_12R/GpL16-k0 (antibody, human IgG1, kappa)", "heavy 1": "not shown", "heavy 2": "not shown", "light": "B1 light", "notes": "as for B1"}, "B16": {"name": "GpH7-A5/GpH7-B3 variant Y300_13S/GpL16-k0 (antibody, human IgG1, kappa)", "heavy 1": "not shown", "heavy 2": "not shown", "light": "B1 light", "notes": "as for B1"}, "B17": {"name": "GpH7-A5/GpH7-B3 variant S324_11K/GpL16-k0 (antibody, human IgG1, kappa)", "heavy 1": "not shown", "heavy 2": "not shown", "light": "B1 light", "notes": "as for B1"}, "B18": {"name": "GpH7-A5/GpH7-B3 variant P329_16H/GpL16-k0 (antibody, human IgG1, kappa)", "heavy 1": "not shown", "heavy 2": "not shown", "light": "B1 light", "notes": "as for B1"}}, "data": [{"target": "T1, FcγRIIb, extracellular domain with C-terminal His tag (human, UniProt P31994 43-217)", "T1 construct": "extracellular domain; Expressed in FreeStyle293 cells; analyte in the Biacore assay; also called FcgRIIb; 2b; not shown: His tag at the C terminus", "T1 sequence (looked up)": "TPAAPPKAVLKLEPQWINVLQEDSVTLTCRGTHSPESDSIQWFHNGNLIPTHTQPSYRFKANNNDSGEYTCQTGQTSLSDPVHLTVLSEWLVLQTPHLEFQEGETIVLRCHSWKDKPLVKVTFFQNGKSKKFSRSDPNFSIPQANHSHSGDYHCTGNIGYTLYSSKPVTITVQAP", "assay": "SPR Biacore, captured antibody, FcgR analyte; GpH7-A5/GpH7-B3/GpL16-k0 = 100", "values": [{"binder": "B1", "He/Con_2b": "41 % of HeCon Ab"}, {"binder": "B2", "He/Con_2b": "77.4 % of HeCon Ab"}, {"binder": "B3", "He/Con_2b": "30.7 % of HeCon Ab"}, {"binder": "B4", "He/Con_2b": "37.9 % of HeCon Ab"}, {"binder": "B5", "He/Con_2b": "45.7 % of HeCon Ab"}, {"binder": "B6", "He/Con_2b": "78.3 % of HeCon Ab"}, {"binder": "B7", "He/Con_2b": "41.2 % of HeCon Ab"}, {"binder": "B8", "He/Con_2b": "85.8 % of HeCon Ab"}, {"binder": "B9", "He/Con_2b": "81.1 % of HeCon Ab"}, {"binder": "B10", "He/Con_2b": "66.8 % of HeCon Ab"}, {"binder": "B11", "He/Con_2b": "40.4 % of HeCon Ab"}, {"binder": "B12", "He/Con_2b": "55.6 % of HeCon Ab"}, {"binder": "B13", "He/Con_2b": "81.1 % of HeCon Ab"}, {"binder": "B14", "He/Con_2b": "83.5 % of HeCon Ab"}, {"binder": "B15", "He/Con_2b": "63.1 % of HeCon Ab"}, {"binder": "B16", "He/Con_2b": "53.9 % of HeCon Ab"}, {"binder": "B17", "He/Con_2b": "68.6 % of HeCon Ab"}, {"binder": "B18", "He/Con_2b": "39.1 % of HeCon Ab"}]}, {"target": "T2, FcγRIIa H (FcγRIIa type H, His at position 131), extracellular domain with C-terminal His tag (human, UniProt P12318 34-217)", "T2 construct": "extracellular domain; Expressed in FreeStyle293 cells; analyte in the Biacore assay; also called FcgRIIa H; 2aH; not shown: His tag at the C terminus", "T2 sequence (looked up)": "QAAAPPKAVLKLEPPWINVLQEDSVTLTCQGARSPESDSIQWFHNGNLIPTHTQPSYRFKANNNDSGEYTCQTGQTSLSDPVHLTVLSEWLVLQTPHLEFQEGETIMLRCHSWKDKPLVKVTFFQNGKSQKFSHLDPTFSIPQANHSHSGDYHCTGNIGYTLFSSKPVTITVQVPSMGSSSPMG", "assay": "SPR Biacore, captured antibody, FcgR analyte; GpH7-A5/GpH7-B3/GpL16-k0 = 100", "values": [{"binder": "B1", "He/Con_2aH": "67.3 % of HeCon Ab"}, {"binder": "B2", "He/Con_2aH": "103 % of HeCon Ab"}, {"binder": "B3", "He/Con_2aH": "38.7 % of HeCon Ab"}, {"binder": "B4", "He/Con_2aH": "62.4 % of HeCon Ab"}, {"binder": "B5", "He/Con_2aH": "68.7 % of HeCon Ab"}, {"binder": "B6", "He/Con_2aH": "102 % of HeCon Ab"}, {"binder": "B7", "He/Con_2aH": "55.4 % of HeCon Ab"}, {"binder": "B8", "He/Con_2aH": "106 % of HeCon Ab"}, {"binder": "B9", "He/Con_2aH": "97.8 % of HeCon Ab"}, {"binder": "B10", "He/Con_2aH": "96 % of HeCon Ab"}, {"binder": "B11", "He/Con_2aH": "66.2 % of HeCon Ab"}, {"binder": "B12", "He/Con_2aH": "94.1 % of HeCon Ab"}, {"binder": "B13", "He/Con_2aH": "98.8 % of HeCon Ab"}, {"binder": "B14", "He/Con_2aH": "102 % of HeCon Ab"}, {"binder": "B15", "He/Con_2aH": "96.5 % of HeCon Ab"}, {"binder": "B16", "He/Con_2aH": "88.1 % of HeCon Ab"}, {"binder": "B17", "He/Con_2aH": "92.2 % of HeCon Ab"}, {"binder": "B18", "He/Con_2aH": "66.1 % of HeCon Ab"}]}, {"target": "T2, FcγRIIa H (FcγRIIa type H, His at …)", "assay": "SPR Biacore; He/Con_2aH divided by He/Con_2b (reference: FcgRIIb)", "values": [{"binder": "B1", "He_2aH/2b (IIaH/IIb)": 1.64}, {"binder": "B2", "He_2aH/2b (IIaH/IIb)": 1.33}, {"binder": "B3", "He_2aH/2b (IIaH/IIb)": 1.26}, {"binder": "B4", "He_2aH/2b (IIaH/IIb)": 1.65}, {"binder": "B5", "He_2aH/2b (IIaH/IIb)": 1.5}, {"binder": "B6", "He_2aH/2b (IIaH/IIb)": 1.31}, {"binder": "B7", "He_2aH/2b (IIaH/IIb)": 1.34}, {"binder": "B8", "He_2aH/2b (IIaH/IIb)": 1.23}, {"binder": "B9", "He_2aH/2b (IIaH/IIb)": 1.21}, {"binder": "B10", "He_2aH/2b (IIaH/IIb)": 1.44}, {"binder": "B11", "He_2aH/2b (IIaH/IIb)": 1.64}, {"binder": "B12", "He_2aH/2b (IIaH/IIb)": 1.69}, {"binder": "B13", "He_2aH/2b (IIaH/IIb)": 1.22}, {"binder": "B14", "He_2aH/2b (IIaH/IIb)": 1.22}, {"binder": "B15", "He_2aH/2b (IIaH/IIb)": 1.53}, {"binder": "B16", "He_2aH/2b (IIaH/IIb)": 1.64}, {"binder": "B17", "He_2aH/2b (IIaH/IIb)": 1.34}, {"binder": "B18", "He_2aH/2b (IIaH/IIb)": 1.69}]}]}
